Experimental findings from the supplement of paper PMC10126150 are described below.

± gives the standard deviation of the averaged measurements.
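Note: ATP exposure 15 min at 22 °C before imaging.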

The subject of the data set is ATP. In words: switch fluorescence ratio, 500 uM ATP over buffer (Cy3 cluster intensity, sum of 5 cycles each) (fold (ratio)); higher = stronger signal-on switching upon ATP binding; sequences stand for … in TCGTCGGCAGCGTCAGATGTGTATAAGAGACAGTTTTTTTTTTTTTTTTTTTTTTTTT…TC. As to conditions: aptamer strand: ATP DNA aptamer (quencher-CACCTGGGGGAGTATTGCGGAGGAAGG + anchor), 100 nM annealed; ATP concentration: 500 uM. The method, boiled down:
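Between each of five buffer/ATP cycles, the flow-cell was stripped with NaOH and re-annealed. Each cycle imaged Cy3-labelled switching-strand clusters, annealed to 100 nM quencher-labelled ATP aptamer on a modified Illumina MiSeq flow-cell, first in selection buffer and then after 15 min with 500 uM ATP at 22 °C. The fluorescence ratio is summed target-cycle over summed buffer-cycle Cy3 intensity per cluster, averaged per switch-domain sequence, with clusters outside 100-1000 RFU excluded.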
Consider GGCATTTTAT, for which the switch fluorescence ratio came out at 1.01 ± 0.061.

Turning to CGCGTCTCCC, the switch fluorescence ratio worked out at 3.58 ± 0.38. The figure for CGGTGCTTTT is 1 ± 0.011; for CTACCCTTTG it is 1.13 ± 0.038; for GCTTTAGGTA it is 0.9843 ± 0.0058. On to AAGGTGAAGA, for which the switch fluorescence ratio was determined as 1.04 ± 0.029. With AAGCGTTGAG the figure was 1.009 ± 0.0045. As for CTTAGGGGGT, the switch fluorescence ratio worked out at 1 ± 0.018. The figure for GCATTATTCA is 1.04 ± 0.014; for TATGCTAAGG it is 0.996 ± 0.025; for TTTTAAATGG it is 1.06 ± 0.052. The figure for TTGGTAGAAT is 1.01 ± 0.014; for GCTAGGGGTA it is 0.987 ± 0.012. The figure for TATCGCAATG is 3.63 ± 0.32. Turning to GATACATAAA, the switch fluorescence ratio amounted to 1.036 ± 0.0092.

In the case of TGTGTATTGG, the switch fluorescence ratio was 1 ± 0.045. With CTGGGATTAT the figure was 0.9755 ± 0.0074; with CAGATGGTGT, 1.02 ± 0.015; with ATAGAGCGCT, 0.988 ± 0.023.

In the case of TGGGAAGTTC, the switch fluorescence ratio came out at 1.04 ± 0.046. Take CTCATAATTT: the switch fluorescence ratio stood at 0.993 ± 0.037. The figure for GTGGGTCGTT is 1 ± 0.031; for GTTTATGTGG it is 0.981 ± 0.025; for AGTTTGGTGC it is 1.05 ± 0.027.

Regarding TTTCGGTCTG, the switch fluorescence ratio came to 1.006 ± 0.0075. The figure for TATAGAAAGT is 0.9981 ± 0.0066; for GATTGATTTA it is 1 ± 0.021. Take ATGGAGTAAC: the switch fluorescence ratio is 0.987 ± 0.011.

For TATGGGGAGT, the switch fluorescence ratio was 0.981 ± 0.046. With AATAGTCGGC the figure was 1 ± 0.042; with TGATGATATG, 0.9929 ± 0.0094; with GGACGGGGTC, 1.01 ± 0.013. The figure for ATCGGGTAAG is 1.01 ± 0.024. For the sequence ACTGGACGAT, the switch fluorescence ratio is 1.19 ± 0.015. Regarding AACCCAATTT, the switch fluorescence ratio turned out to be 0.985 ± 0.015. With AAGAGAACTT the figure was 0.993 ± 0.013; with CGGTAGGTGG, 1.01 ± 0.057; with AATGCGAGAA, 0.973 ± 0.024. The figure for AGACTCACTG is 1.09 ± 0.011. Consider GGGATCTATA, for which the switch fluorescence ratio was found to be 0.9721 ± 0.0081. Consider TAGAAGCCCC, for which the switch fluorescence ratio turned out to be 1.09 ± 0.039. With GACATGGTTA the figure was 1.02 ± 0.051; with CACTAGTAAA, 0.9984 ± 0.0094.

In the case of CCTTCCCGGG, the switch fluorescence ratio came out at 1.59 ± 0.0072.

Take GATAGTGAAG: the switch fluorescence ratio was found to be 0.993 ± 0.015. AATACGTATA: the switch fluorescence ratio is 1.1 ± 0.068.

On to ATGTAGCATA, for which the switch fluorescence ratio was 1.57 ± 0.082. The figure for TCCATGATTG is 0.973 ± 0.037; for AGGAATTGGA it is 1.01 ± 0.1; for GAGTGCGAAC it is 1.05 ± 0.082. As to CGTGTATGGG, the switch fluorescence ratio turned out to be 1 ± 0.037.

For ATTGTAATTG, the switch fluorescence ratio worked out at 0.993 ± 0.012. The figure for CGTAAGGGGA is 1.05 ± 0.064.

In the case of GAAGTAGCGA, the switch fluorescence ratio came to 1.05 ± 0.015. The figure for AATTGGTCAT is 1 ± 0.018.

Take TTTCCCTTCT: the switch fluorescence ratio was 1.05 ± 0.06. As to AATGAGGTCG, the switch fluorescence ratio came to 1.002 ± 0.0046. Regarding TTATTCGGGG, the switch fluorescence ratio amounted to 0.968 ± 0.054. The figure for ATGTAAAAGT is 0.986 ± 0.043. With GAGGGCGGCG, the switch fluorescence ratio is 1.01 ± 0.11. Regarding GTTGTGAAAG, the switch fluorescence ratio is 1 ± 0.035. With AACGCCATGC the figure was 2.68 ± 0.38; with CAATTCCGTG, 1.02 ± 0.022; with GGGATTTTCC, 0.979 ± 0.044. Consider CGTGGGGATC, for which the switch fluorescence ratio was found to be 1.06 ± 0.022. With TTAATTTACA, the switch fluorescence ratio was determined as 1.09 ± 0.044.
